Key:
Type in all cases: binding
Details in all cases: response relative to ADIFAB2
[1] = Probe fluorescence ratio response to linolenic acid relative to ADIFAB2
Method in brief: (§1)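 Each fatty acid's response was expressed relative to ADIFAB2, the rI-FABP-L72A probe, as ΔR/ΔRreference. ΔR is the change in the background-corrected two-wavelength intensity ratio R=Fλ1/Fλ2 from its analyte-free baseline R0. Emission was read near about 420-480 nm for unbound and about 495-580 nm for FFA-bound probe.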

[2] = Probe fluorescence ratio response to arachidonic acid relative to ADIFAB2
Method in brief: as §1

[3] = Probe fluorescence ratio response to oleic acid relative to ADIFAB2
Method in brief: as §1

[4] = Probe fluorescence ratio response to palmitic acid relative to ADIFAB2
Method in brief: as §1

[5] = Probe fluorescence ratio response to linoleic acid relative to ADIFAB2
Method in brief: as §1

Molecule | DR/DR LNA [1] | DR/DR AA ([2]; arachidonic acid) | DR/DR OA [3] | DR/DR PA [4] | DR/DR LA [5] | DR/DR AA ([2]; Arachidonic acid)
102S, 72A (protein, listed as Rattus norvegicus, PEPTIDE (1)...(131) wild-type rat intestinal fatty acid binding protein) AFDGTWKVDRNENYEKFMEKMGINVVKRKLGAHDNLKLTITQEGNKFTVKESSNFRNIDVVFELGVDFAYSAADGTELTGTWTMEGNKLVGKFKRVDNGKESIAVREISGNELIQTYTYEGVEAKRIFKKE | 0.43 | 0.39 | 0.43 | 0.18 | 0.45 | –
47T1, L72A (protein, listed as Rattus norvegicus, PEPTIDE (1)...(131) wild-type rat intestinal fatty acid binding protein) AFDGTWKVDRNENYEKFMEKMGINVVKRKLGAHDNLKLTITQEGNKTTVKESSNFRNIDVVFELGVDFAYSAADGTELTGTWTMEGNKLVGKFKRVDNGKELIAVREISGNELIQTYTYEGVEAKRIFKKE | 0.74 | – | 0.74 | 0.46 | 0.77 | 0.68
47Y2, L72A (protein, listed as Rattus norvegicus, PEPTIDE (1)...(131) wild-type rat intestinal fatty acid binding protein) AFDGTWKVDRNENYEKFMEKMGINVVKRKLGAHDNLKLTITQEGNKYTVKESSNFRNIDVVFELGVDFAYSAADGTELTGTWTMEGNKLVGKFKRVDNGKELIAVREISGNELIQTYTYEGVEAKRIFKKE | 1.40 | – | 1.42 | 1.17 | 1.40 | 1.37
47V3, L72A (protein, listed as Rattus norvegicus, PEPTIDE (1)...(131) wild-type rat intestinal fatty acid binding protein) AFDGTWKVDRNENYEKFMEKMGINVVKRKLGAHDNLKLTITQEGNKVTVKESSNFRNIDVVFELGVDFAYSAADGTELTGTWTMEGNKLVGKFKRVDNGKELIAVREISGNELIQTYTYEGVEAKRIFKKE | 1.01 | – | 1.01 | 0.78 | 1.04 | 1.00
49A1, 72A (protein, listed as Rattus norvegicus, PEPTIDE (1)...(131) wild-type rat intestinal fatty acid binding protein) AFDGTWKVDRNENYEKFMEKMGINVVKRKLGAHDNLKLTITQEGNKFTAKESSNFRNIDVVFELGVDFAYSAADGTELTGTWTMEGNKLVGKFKRVDNGKELIAVREISGNELIQTYTYEGVEAKRIFKKE | 1.68 | – | 1.60 | 0.79 | 1.72 | 1.72
47R3, L72A (protein, listed as Rattus norvegicus, PEPTIDE (1)...(131) wild-type rat intestinal fatty acid binding protein) AFDGTWKVDRNENYEKFMEKMGINVVKRKLGAHDNLKLTITQEGNKRTVKESSNFRNIDVVFELGVDFAYSAADGTELTGTWTMEGNKLVGKFKRVDNGKELIAVREISGNELIQTYTYEGVEAKRIFKKE | 0.61 | – | 0.62 | 0.30 | 0.64 | 0.56
47S1, L72A (protein, listed as Rattus norvegicus, PEPTIDE (1)...(131) wild-type rat intestinal fatty acid binding protein) AFDGTWKVDRNENYEKFMEKMGINVVKRKLGAHDNLKLTITQEGNKSTVKESSNFRNIDVVFELGVDFAYSAADGTELTGTWTMEGNKLVGKFKRVDNGKELIAVREISGNELIQTYTYEGVEAKRIFKKE | 0.69 | – | 0.64 | 0.34 | 0.66 | 0.61
